Data published in patent US11732029B2, “Methods and compositions for the treatment of wounds” (The University of Chicago, priority 2017, dated 2023).

How the values were obtained:
PDGF-BB [1] = target: T1, PDGF-BB (Homo sapiens, UniProt P01127); assay: Surface plasmon resonance, vWF against GF; details: SPR; vWF immobilized; two estimated binding sites, heterogeneous ligand-parallel reaction fit; read-out: lowest KD value for PDGF-BB
T1 construct: All growth factors (GFs) and chemokines were purchased in their mature forms; purchased PeproTech; host or cells: Escherichia coli
Method: SPR assays were performed as described previously2. In brief, measurements were made with a Biacore X100 SPR system or Biacore 3000 SPR system (GE Healthcare). Plasma-derived vWF was immobilized via amine coupling on a C1 chip (GE Healthcare) for 2000 resonance units (RU) according to the manufacturer's instructions. Recombinant human VEGF-A165, VEGF-A121, or PDGF-BB was flowed at increasing concentrations in the running buffer at 30 μL/min. The sensor chip was regenerated with glycine at pH 2 for every cycle. Specific binding of GFs to vWF was calculated automatically using the response to a non-functionalized channel as a reference. Binding curves were fitted using BIAevalution software (GE Healthcare). vWF-VEGF-A165 binding results were fitted with Langmuir binding kinetics (1:1 binding with drifting baseline Rmax local). vWF-PDGF-BB binding results were fitted with heterogeneous ligand-parallel reaction.

VEGF-A = assay: vWF binding to VEGF-A in human serum (sandwich ELISA, immunoprecipitation and Western blotting); details: two lots of pooled serum from healthy donors
Method: One mL of human serum was immunoprecipitated with 10 μg of monoclonal rabbit anti-human vWF antibody (SinoBiological) or control rabbit IgG (EMD Millipore) and 50 μL of protein G-agarose (Thermo Fisher Scientific) overnight at 4° C. The resulting pellet was dissolved in Laemmli buffer and subjected to Western blot analysis. Western blot analysis was performed after SDS-PAGE (4-20% gradient gel, Bio-Rad) and transfer onto MS nitrocellulose membranes (Membrane Solutions). GFs were detected using 1 μg/mL biotinylated antibodies for human VEGF-A (R & D Systems), followed by incubation with HRP conjugated streptavidin (R & D Systems) at 1:200 dilutions. The proteins were detected and visualized with the ECL Plus Western Blotting Detection System (GE Healthcare).
The study was approved by the ethics committees of the Hammersmith, Queen Charlotte's, and Royal Marsden hospitals; informed consent was obtained from all individuals in accordance with the Declaration of Helsinki. ELISA plates (med-binding) were coated with 10 μg/mL rabbit monoclonal anti-human vWF antibody (clone: 111, SinoBiological). […] The antibodies were detected by streptavidin-HRP (R & D Systems). Color development and the absorbance measurement were done as described above.

VEGF-A165 [2] = target: T2, VEGF-A165 (Homo sapiens, UniProt P15692); assay: vWF binding to recombinant VEGF-A isoforms (ELISA); details: plate coated with 50 nM vWF domains, 1 μg/mL VEGF-A, vs BSA
T2 construct: All growth factors (GFs) and chemokines were purchased in their mature forms; purchased PeproTech; host or cells: Escherichia coli
T2 sequence (P15692 27-191 isoform P15692-4 limits assumed): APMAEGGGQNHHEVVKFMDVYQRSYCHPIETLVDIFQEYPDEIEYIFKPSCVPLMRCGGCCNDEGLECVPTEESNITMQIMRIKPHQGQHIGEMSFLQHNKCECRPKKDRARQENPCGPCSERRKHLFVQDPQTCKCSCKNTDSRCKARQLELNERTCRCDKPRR
Method: (§1) ELISA was performed as previously reported1. In brief, ELISA plates (med binding: Greiner Bio-One) were coated with 50 nM BSA (GE Healthcare), pro-peptide containing recombinant vWF (Sino Biological), plasma-derived vWF (EMD Millipore), recombinant human vWF A1 domain (U-Protein Express), recombinant human vWF A2 domain (R & D systems), recombinant human vWF A3 domain (U-Protein Express), vWF A1 HBD peptide or scrambled/mutated HBD peptide (all peptides were synthesized by Genscript). After blocking with 2% BSA solution containing PBS-T, 1 μg/mL of recombinant human VEGF-A121 (PeproTech), recombinant human VEGF-A145 (R & D Systems), or recombinant human VEGF-A165 (PeproTech) was added. Bound VEGF-A was detected with 1 μg/mL of mouse anti-human VEGF-A antibody (clone: 26503, R & D systems). After 60 min of incubation, horseradish peroxidase (HRP) conjugated goat anti-mouse antibody (1:2000 dilution, Dako) was added and incubated for another 60 min. Color development and the absorbance measurement were done as described above.

VEGF-A145 = target: T3, VEGF-A145 (Homo sapiens, UniProt P15692); assay: vWF binding to recombinant VEGF-A isoforms (ELISA); details: plate coated with 50 nM vWF domains, 1 μg/mL VEGF-A, vs BSA
T3 construct: All GFs and chemokines were purchased in their mature forms; purchased R & D Systems
T3 sequence (P15692 27-171 isoform P15692-6 limits assumed): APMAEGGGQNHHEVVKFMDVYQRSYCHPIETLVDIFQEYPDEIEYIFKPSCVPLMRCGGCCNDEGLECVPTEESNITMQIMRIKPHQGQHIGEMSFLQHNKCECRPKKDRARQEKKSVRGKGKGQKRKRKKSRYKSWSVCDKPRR
Method: as §1

[3] = tested on: human umbilical vein endothelial cells (HUVEC); assay: Cell proliferation assay with vWF HBD, HUVEC; type: cell-based; details: vWF HBD coated plates, 72 hrs
Method: Cell proliferation assays were performed as previously reported1. Briefly, human lung fibroblasts (Lonza) were cultured using FGM-2 medium (Lonza) (1000 cells/well) or human umbilical vein endothelial cells (HUVEC, Lonza) were cultured using EGM-2 medium (Lonza) (1000 cells/well) on 1 μg/mL vWF HBD pre-coated 96-well plates (Tissue culture treated, Falcon). Cell numbers were quantified after 72 hrs using a CyQUANT assay (Invitrogen).

VEGF-A165 [4] = target: T2, VEGF-A165; assay: Recombinant GF binding to the vWF recombinant protein and A1 HBD peptide (ELISA); details: plate coated with vWF protein, A1 domain or HBD peptide, 1 μg/mL GF
Method: (§2) ELISA tests were performed as described above. In brief, ELISA plates were coated with 1 μg/mL of FL-vWF (WT or R1341Q), 1 μg/mL of vWF A1 recombinant protein (U-Protein Express) or 1 μg/mL of vWF A1 HBD peptide (sequence […], (SEQ ID NO:50) chemically synthesized by Genscript) at 37° C. overnight. After blocking with 2% BSA solution containing PBS-T, 1 μg/mL of the recombinant human proteins VEGF-A121, VEGF-A165, PlGF-1, PlGF-2, PDGF-BB, FGF-2, CXCL-12α and CXCL-12γ were added. 1 μg/mL of BSA served as non-binding protein control. Bound GF or chemokine was detected with biotinylated antibodies for human VEGF-A, PlGF, PDGF-BB, FGF-2, or CXCL-12 (R & D Systems). The antibodies were detected by streptavidin-HRP (R & D Systems). Color development and the absorbance measurement were done as described above.

PDGF-BB [5] = target: T1, PDGF-BB; assay: as above; details: plate coated with vWF protein, A1 domain or HBD peptide, 1 μg/mL GF
Method: as §2

T1 sequence (P01127 82-190 limits assumed): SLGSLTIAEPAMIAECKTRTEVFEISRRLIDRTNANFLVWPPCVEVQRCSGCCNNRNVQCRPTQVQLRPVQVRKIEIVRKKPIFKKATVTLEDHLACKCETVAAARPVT

Substance | Kd (PDGF-BB [1]) [nM] | vWF binding to VEGF-A in pooled human serum (VEGF-A) | binding to VEGF-A165 (VEGF-A165 [2]) | binding to VEGF-A145 (VEGF-A145) | endothelial proliferation [3] | binding to VEGF-A165 (VEGF-A165 [4]) | binding to PDGF-BB (PDGF-BB [5])
vWF: human plasma-derived von Willebrand factor (EMD Millipore) | 24 | binds to VEGF-A | bind | bound |  |  | 
YIGLKDRKRPSELRRIASQVKYAC [vWF HBD] |  |  | able to bind | able to bind | did not affect endothelial proliferation | showed binding | showed binding
